B1: GST-p107 R1R2 [not stated] / B55α (PP2A regulatory subunit B55α), endogenous in U-2 OS cells [human (endogenous in U-2 OS)] (parent)
chain 1: KVPTCEEVIFPNNFETGNGGNVQGHLPLMPMSPLMHPRVKEVRTDSGSLRRDMQPLSPISVHERYSSPTAGSAKRRLF
chain 2: MAGAGGGNDIQWCFSQVKGAVDDDVAEADIISTVEFNHSGELLATGDKGGRVVIFQQEQENKIQSHSRGEYNVYSTFQSHEPEFDYLKSLEIEEKINKIRWLPQKNAAQFLLSTNDKTIKLWKISERDKRPEGYNLKEEDGRYRDPTTVTTLRVPVFRPMDLMVEASPRRIFANAHTYHINSISINSDYETYLSADDLRINLWHLEITDRSFNIVDIKPANMEELTEVITAAEFHPNSCNTFVYSSSKGTIRLCDMRASALCDRHSKLFEEPEDPSNRSFFSEIISSISDVKFSHSGRYMMTRDYLSVKIWDLNMENRPVETYQVHEYLRSKLCSLYENDCIFDKFECCWNGSDSVVMTGSYNNFFRMFDRNTKRDITLEASRENNKPRTVLKPRKVCASGKRKKDEISVDSLDFNKKILHTAWHPKENIIAVATTNNLYIFQDKVN

Variants of: B1
Experiment: GST pull-down, western blot
Conditions: with B55α (PP2A regulatory subunit B55α), U2-OS lysates, triplicate, read off a plot

Variant	ratio to parent
chain 1 R64A	0.57

— article PMC8575462, “PP2A/B55α substrate recruitment as defined by the retinoblastoma-related protein p107” (eLife, 2021)
